From US20090170750A1 (Novo Nordisk, published 2009)
Bridges are numbered along the chain shown (N, C = ends). Where no end group is shown, it is not given here.

Columns and labels:
[1] = target: human IGF-1 receptor (human) (UniProt P08069); test: competition with 125I-IGF-1 (SPA)
[2] = target: purified recombinant human insulin receptor-exon 11 (human) (UniProt P06213); test: competition with 125I-insulin (SPA)
[3] = target: T1, purified recombinant human insulin receptor-exon 11 (human, UniProt P06213-2 28-1370, limits assumed); test: competition with 125I-insulin (SPA)
T1 construct: also called IR
Experimental: A total of 100 μl was then added and a dilution series is made from appropriate samples. To the dilution series was then added 100 μl of reagent mix and the samples were incubated for 16 hours while gently shaken. The phases were the then separated by centrifugation for 1 min and the plates counted in a Topcounter. The binding data were fitted using the nonlinear regression algorithm in the GraphPad Prism 2.01 (GraphPad Software, San Diego, Calif.).

Molecule	Human IGF-1 receptor binding relative to human insulin [1] [%]	also measured
single-chain insulin PAK 1688011, connecting peptide VGLSSGK (from UniProt P01308 25-53; P01308 90-110) (ligand)	0.1	–
single-chain insulin with connecting peptide VGHSSGK (SEQ ID NO:108), no PAK number printed (from UniProt P01308 25-53; P01308 90-110) (ligand)	0.15	–
single-chain insulin B(1-29)-TRSSNGR-A(1-21) (from UniProt P01308 25-53; P01308 90-110) (ligand)	–	Human IGF-1 receptor binding [1]: 0.1%
single-chain insulin PAK 1638077, connecting peptide VGSSRGK (from UniProt P01308 25-53; P01308 90-110) (ligand)	0.1	–
single-chain insulin PAK 1688028, connecting peptide VGMSSGK (SEQ ID NO:106) (from UniProt P01308 25-53; P01308 90-110) (ligand)	0.2	–
single-chain insulin B(1-29)-TRLSQGR-A(1-21) (from UniProt P01308 25-53; P01308 90-110) (ligand)	–	Human IGF-1 receptor binding [1]: 0.05%
single-chain insulin with connecting peptide RGSSGK (SEQ ID NO:114), no PAK number printed (from UniProt P01308 25-53; P01308 90-110) (ligand)	0.5	IR, binding relative to human insulin [2]: 54%
single-chain insulin PAK 1740, connecting peptide VGSSSGK [B1G_B3Q_A18Q_A21G] (from UniProt P01308 25-53; P01308 90-110) (ligand)	–	IR, binding relative to human insulin [2]: 90%
single-chain insulin PAK 1811, connecting peptide TGLGSGK [A18Q_A21G] (from UniProt P01308 25-53; P01308 90-110) (ligand)	–	IR, binding relative to human insulin [2]: 136%
B(1-29)-B27E-B29A-TGLGKGQ-A(1-21)-A18Q Human insulin (PAK1845) (ligand, disulfide 19-56, 42-47, 7-43) FVNQHLCGSHLVEALYLVCGERGFFYEPATGLGKGQGIVEQCCTSICSLYQLEQYCN	–	IR, binding relative to human insulin [3]: 20%
B(1-29)-B29A-TGLGKGQ-A(1-21)-A18Q Human insulin (PAK1837) (ligand, disulfide 19-56, 42-47, 7-43) FVNQHLCGSHLVEALYLVCGERGFFYTPATGLGKGQGIVEQCCTSICSLYQLEQYCN	–	IR, binding relative to human insulin [3]: 71%
single-chain insulin PAK 1735, connecting peptide VGRSSGK [A21G] (ligand, disulfide 19-56, 42-47, 7-43) FVNQHLCGSHLVEALYLVCGERGFFYTPKVGRSSGKGIVEQCCTSICSLYQLENYCG	–	IR, binding relative to human insulin [3]: 143%
single-chain insulin PAK 1873, connecting peptide KGLSSGQ [B29A_A18Q] (ligand, disulfide 19-56, 42-47, 7-43) FVNQHLCGSHLVEALYLVCGERGFFYTPAKGLSSGQGIVEQCCTSICSLYQLEQYCN	–	IR, binding relative to human insulin [3]: 60%
single-chain insulin PAK 1861, connecting peptide VGLGKGPGAGK [A18Q_A21G] (ligand) FVNQHLCGSHLVEALYLVCGERGFFYTPKVGLGKGPGAGKGIVEQCCTSICSLYQLEQYCG	–	IR, binding relative to human insulin [3]: 36%
single-chain insulin PAK 1896, connecting peptide VGLSSGQ [B29A_A18Q_A22K] (ligand, disulfide 19-56, 42-47, 7-43) FVNQHLCGSHLVEALYLVCGERGFFYTPAVGLSSGQGIVEQCCTSICSLYQLEQYCNK	–	IR, binding relative to human insulin [3]: 38%

Continued, in another order:

Human IGF-1 receptor binding relative to human insulin [1] [%]	Molecule	also measured
0.2	single-chain insulin PAK 1708, connecting peptide VGSRSGK (from UniProt P01308 25-53; P01308 90-110) (ligand)	–
0.2	single-chain insulin PAK 1687033, connecting peptide VGSYSGK (from UniProt P01308 25-53; P01308 90-110) (ligand)	–
0.05	single-chain insulin PAK 1766, connecting peptide VGSSSGK (from UniProt P01308 25-53; P01308 90-110) (ligand)	–
0.1	single-chain insulin PAK 1687046, connecting peptide VGSMSGK (from UniProt P01308 25-53; P01308 90-110) (ligand)	–
0.5	single-chain insulin PAK 1709, connecting peptide VGRSSGK (SEQ ID NO:105) (from UniProt P01308 25-53; P01308 90-110) (ligand)	–
0.2	single-chain insulin PAK 1688007, connecting peptide VGYSSGK (from UniProt P01308 25-53; P01308 90-110) (ligand)	–
